The assay addresses T1, soluble mesothelin (human, UniProt Q13421).
T1 chain: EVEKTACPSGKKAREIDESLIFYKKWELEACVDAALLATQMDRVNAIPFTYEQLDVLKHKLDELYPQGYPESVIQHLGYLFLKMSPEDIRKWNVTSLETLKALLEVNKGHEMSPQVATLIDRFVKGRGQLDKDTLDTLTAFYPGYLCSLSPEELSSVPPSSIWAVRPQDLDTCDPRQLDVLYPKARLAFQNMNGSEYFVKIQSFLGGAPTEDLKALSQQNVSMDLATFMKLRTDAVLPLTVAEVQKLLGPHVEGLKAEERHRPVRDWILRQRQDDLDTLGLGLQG
In words: ELISA. A general note: An ELISA detects its analyte on a solid surface through an enzyme-linked reagent.

B1: Gly1-2-H4 (antibody, V domains shown)
VH: QVQLVQSGAEVKKPGSSVKVSCKSSGGTFSSDTINWVRQAPGQGLEWMGWINPNSGGTNYAQKFQGWVTMTRDTSISTAYMELSRLRSDDTAVYYCARESALGGSYPLSFWGQGTLVTVSS
VL: ETTLTQSPGTLSLSPGERATLSCRASQSVSSSYLAWYQQKPGQAPRLLIYGASSRATGIPDRFSGSGSGTDFTLTISRLEPEDSATYYCLQDDSYPLTFGQGTKVEIK
On to B1, for which the binding result was “no binding”.
